Reference: patent US11932673B2, “Sodium channel inhibitors” (priority 2017, dated 2024)

How the values were obtained:
trypsin = experiment: TRF binding assay of purified KnotBody Fabs on biotinylated trypsin
huASIC1a = biological target: T1, huASIC1a (Homo sapiens, UniProt P78348); experiment: QPatch automated whole-cell patch-clamp on HEK293 cells stably expressing huASIC1a; type: cell-based; details: pH 6.0 activation after 15-20 min pre-incubation; concentration μM: KB_A07_PcTx1 6.6, KB_A12_PcTx1 5, KB_A12_Mba-1 3, KB_A12_Mba-2 2.3, KB_A07 6, KB_A12 3.3
T1 sequence (P78348 whole entry, looked up): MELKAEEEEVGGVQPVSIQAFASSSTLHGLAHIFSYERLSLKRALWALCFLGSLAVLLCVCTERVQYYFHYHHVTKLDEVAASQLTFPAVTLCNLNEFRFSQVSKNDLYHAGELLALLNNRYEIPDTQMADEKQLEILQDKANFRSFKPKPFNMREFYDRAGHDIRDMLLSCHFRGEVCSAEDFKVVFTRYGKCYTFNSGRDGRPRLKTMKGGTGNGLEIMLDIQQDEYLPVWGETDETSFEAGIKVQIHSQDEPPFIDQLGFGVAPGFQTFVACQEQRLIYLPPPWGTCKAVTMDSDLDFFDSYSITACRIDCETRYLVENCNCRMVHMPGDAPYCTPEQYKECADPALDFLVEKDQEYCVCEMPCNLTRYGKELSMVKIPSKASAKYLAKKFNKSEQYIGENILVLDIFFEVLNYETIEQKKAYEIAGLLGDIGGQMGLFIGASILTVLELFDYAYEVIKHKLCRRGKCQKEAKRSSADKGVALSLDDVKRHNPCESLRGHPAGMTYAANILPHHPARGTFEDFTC
Procedure: Knottin Kv 1.3 and ASIC1a blockers expressed in the KnotBody format (see examples 6 and 7) were tested for their ability to inhibit the function of the ion channel targets. The effect of these KnotBodies on cells expressing the human Kv 1.3 (huKv1.3) or human ASIC1a channels was assessed using QPatch automated whole-cell patch-clamp electrophysiology (Sophion).
To functionally assess the ASIC1a KnotBodies, HEK293 cells stably expressing huASIC1a (Sophion) were analysed using a QPatch electrophysiology assay in the presence or absence of the KnotBody fusions (using KB_A12 as a recipient and replacing the original EETI-II donor as shown in Table 8). The “parental” KB_A12 with the EETI-II donor was used as a negative control. Internal and external physiological solutions were freshly prepared prior to the assay. […]
At the end of each KnotBody incubation and subsequent ASIC1a current activation, a full blocking concentration (300 nM) of the ASIC1a knottin inhibitor PcTx1 (positive control) was perfused onto the cell recording and a final activating pH 6.0 external solution was applied. The percentage remaining signal between activating pH 6.0 baseline (i.e. pre-KnotBody) and post-KnotBody incubation was determined.

human Nav1.7 = human Nav1.7 (Homo sapiens, UniProt Q15858); experiment: QPatch patch-clamp on CHO cells stably expressing human Nav1.7, single application (Example 19); type: cell-based; details: 20 minutes application; run-down of external solution control subtracted
Procedure: The effect of these KnotBodies on cells expressing human Nav1.7 (huNav1.7) channel was assessed using QPatch automated patch-clamp platform (Sophion). For the testing of Nav1.7 ion channel currents, CHO cells stably expressing human Nav1.7 (GenBank accession number NM 002977; cell line catalogue number CT6003, Charles River Discovery, Cleveland, USA) were subjected to the QPatch electrophysiology assay in the presence or absence of the KnotBody fusions or the antibody isotypes (negative controls). Internal and external physiological solutions were freshly prepared prior to the assay. The extracellular solution contained 145 mM NaCl, 4 mM KCl, 2 mM CaCl2, 1 mM MgCl2, 10 mM HEPES and 10 mM glucose; the pH was adjusted to 7.4 with NaOH; the osmolarity was ˜305 mOsm/L. The intracellular solution contained: KF (120 mM), KCl (20 mM), HEPES (10 mM) EGTA (10 mM); the pH was adjusted to 7.2 with KOH; osmolarity was ˜300 mOsm/L.
A series of depolarising voltage (channel activating) pulses were used to monitor the channel currents upon adding control (extracellular solution) to define a control baseline of current activity. To these measured control channel currents KnotBody or parental antibody isotypes (control molecules) were applied to the external bathing solution. The parental KnotBody KB_A12 (with trypsin inhibitor knottin EETI-II at CDR2) were used as test molecule isotype controls for the testing. […] The elicited, maximum outward current values measured during the −10 mV activating step for each solution period (a control, baseline level of current was determined at 10 minutes after application of the control external recording solution and a test level of current was determined after 20 minutes of application of KnotBody or its isotype) and average inhibition was determined between the current from the 10 minute baseline control current and the subsequent 20 minute KnotBody application. […] The average inhibition values (with external control reduction subtracted) for KnotBodies and isotypes was calculated.

Sequence of human Nav1.7 (Q15858 other isoform, or with tags, fused parts or gaps): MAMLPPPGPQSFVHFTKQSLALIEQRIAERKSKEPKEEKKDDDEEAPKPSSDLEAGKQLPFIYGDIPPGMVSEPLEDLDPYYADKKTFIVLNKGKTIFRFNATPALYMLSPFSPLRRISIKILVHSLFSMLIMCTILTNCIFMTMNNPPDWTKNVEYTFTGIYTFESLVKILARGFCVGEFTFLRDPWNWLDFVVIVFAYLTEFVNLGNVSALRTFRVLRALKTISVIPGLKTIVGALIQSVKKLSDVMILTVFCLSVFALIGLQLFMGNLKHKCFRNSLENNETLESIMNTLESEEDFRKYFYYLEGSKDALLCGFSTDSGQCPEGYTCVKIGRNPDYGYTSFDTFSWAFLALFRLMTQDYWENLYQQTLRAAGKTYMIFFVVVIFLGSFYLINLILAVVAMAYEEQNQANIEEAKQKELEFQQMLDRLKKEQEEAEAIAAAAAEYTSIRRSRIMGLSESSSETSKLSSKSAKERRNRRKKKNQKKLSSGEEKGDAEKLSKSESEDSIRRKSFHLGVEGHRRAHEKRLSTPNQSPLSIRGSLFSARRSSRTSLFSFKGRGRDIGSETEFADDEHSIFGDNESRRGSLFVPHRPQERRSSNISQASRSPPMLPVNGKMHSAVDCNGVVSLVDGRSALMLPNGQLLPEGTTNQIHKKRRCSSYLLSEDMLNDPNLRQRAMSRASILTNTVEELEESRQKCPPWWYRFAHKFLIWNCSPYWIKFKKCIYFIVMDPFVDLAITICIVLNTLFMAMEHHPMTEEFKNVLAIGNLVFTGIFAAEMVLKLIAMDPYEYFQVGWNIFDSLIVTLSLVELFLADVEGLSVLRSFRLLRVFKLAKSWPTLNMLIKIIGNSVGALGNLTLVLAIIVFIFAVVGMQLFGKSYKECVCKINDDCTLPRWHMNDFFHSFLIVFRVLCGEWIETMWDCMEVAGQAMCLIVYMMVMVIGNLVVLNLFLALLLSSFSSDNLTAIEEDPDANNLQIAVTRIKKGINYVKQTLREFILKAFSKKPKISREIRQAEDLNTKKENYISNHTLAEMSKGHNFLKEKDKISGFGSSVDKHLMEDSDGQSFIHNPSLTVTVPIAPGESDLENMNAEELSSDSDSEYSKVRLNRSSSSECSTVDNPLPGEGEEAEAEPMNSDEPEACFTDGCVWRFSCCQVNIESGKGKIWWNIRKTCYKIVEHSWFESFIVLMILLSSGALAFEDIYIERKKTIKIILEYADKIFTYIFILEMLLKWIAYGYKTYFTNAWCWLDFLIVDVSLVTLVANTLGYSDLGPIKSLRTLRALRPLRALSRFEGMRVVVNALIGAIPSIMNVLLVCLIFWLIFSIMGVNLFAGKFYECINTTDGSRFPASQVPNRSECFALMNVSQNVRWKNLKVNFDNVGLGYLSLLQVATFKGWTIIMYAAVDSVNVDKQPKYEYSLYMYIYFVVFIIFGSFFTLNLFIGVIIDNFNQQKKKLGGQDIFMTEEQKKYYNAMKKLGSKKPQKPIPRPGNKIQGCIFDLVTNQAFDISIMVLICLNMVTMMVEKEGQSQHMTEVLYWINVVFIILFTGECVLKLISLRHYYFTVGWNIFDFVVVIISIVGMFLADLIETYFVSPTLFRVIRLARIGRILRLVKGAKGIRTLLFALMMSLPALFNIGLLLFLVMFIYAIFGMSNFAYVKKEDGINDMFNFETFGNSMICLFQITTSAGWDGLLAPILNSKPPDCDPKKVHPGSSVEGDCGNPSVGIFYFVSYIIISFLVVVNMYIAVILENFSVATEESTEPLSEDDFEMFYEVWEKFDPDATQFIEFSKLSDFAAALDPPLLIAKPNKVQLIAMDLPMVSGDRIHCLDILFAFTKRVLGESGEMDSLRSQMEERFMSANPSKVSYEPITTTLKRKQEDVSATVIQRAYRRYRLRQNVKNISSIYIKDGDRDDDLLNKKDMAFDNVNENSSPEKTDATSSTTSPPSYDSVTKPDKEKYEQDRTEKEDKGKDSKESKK

B1: KB_A12: EETI-II VL CDR2 KnotBody, D1A12 VH, VL SEQ ID NO: 105/373; parental/isotype control (antibody, V domains shown)
VH: EVQLVESGGGLVRPGGSLRLSCAASGFTFSSYAMSWVRQAPGKGLEWVSAISGSGGSTYYADSVKGRFTISRDNTKNSLYLQMTSLRADDTAFYYCVKDFGPGYGTGWFDYWGPGTLVTVSS
VL: QSVLTQPPSVSEAPRQRVTITCSGSSSNIGNNAVNWYQQLPGKAPKLLIYAAGRCPRILMRCKQDSDCLAGCVCGPNGFCGANSGVSDRFSAAKSGTSASLAINGLRSEDEADYYCAAWDDSLNGYVFGTGTKLTVLG
trypsin; KnotBody Fab 0.6 ug/mL, background (no Fab) 431
  TRF signal for 0.6 ug/mL Fab: 102132
trypsin; KnotBody Fab 2.4 ug/mL, background (no Fab) 406
  TRF signal for 2.4 ug/mL Fab: 221989
trypsin; KnotBody Fab 10 ug/mL, background (no Fab) 420
  TRF signal for 10 ug/mL Fab: 252832
huASIC1a
  % current remaining: 67.4%
Human Nav1.7
  inhibition in measured Nav1.7 current: small inhibition in measured current, which was not statistically significant
